Here are results for one substance from patent publication US20100061992A1.

This experiment addresses mouse TIM-3 on cells (splenic dendritic cells, D2SC1 dendritic cell line, TIM-3+ Th1 T cells) (mouse) (UniProt Q8VIM0). Kind of experiment: cell-based or functional assay.
Chain of UniProt Q8VIM0 (Q8VIM0 other isoform, or with tags, fused parts or gaps limits assumed): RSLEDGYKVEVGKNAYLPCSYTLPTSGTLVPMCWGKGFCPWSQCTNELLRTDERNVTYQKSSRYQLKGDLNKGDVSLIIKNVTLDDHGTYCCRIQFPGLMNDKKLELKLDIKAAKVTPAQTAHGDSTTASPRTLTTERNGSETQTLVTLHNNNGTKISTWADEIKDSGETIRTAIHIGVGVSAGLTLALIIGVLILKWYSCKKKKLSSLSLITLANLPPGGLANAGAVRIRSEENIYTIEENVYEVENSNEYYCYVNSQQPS

“recombinant human galectin-9 (from UniProt O00182 1-355) (ligand)”: the production of TNF-α in response to LPS and LPS plus galectin-9, TIM-3-/- DCs relative to wild type DCs lay within 30 to 40%.
